Consider one molecule from PMC11730255 (Molecular Therapy Oncology, 2024).

The assay has as its target T1, rhB7-H6 biotinylated Fc fusion protein (human, UniProt Q68D85 25-262, biotin).
T1 construct: B7-H6 (natural cytotoxicity triggering receptor 3 ligand 1), human; supplier named under library sorting; the BLI methods say only 'B7-H6'; source: bought: R&D Systems
T1 sequence (looked up): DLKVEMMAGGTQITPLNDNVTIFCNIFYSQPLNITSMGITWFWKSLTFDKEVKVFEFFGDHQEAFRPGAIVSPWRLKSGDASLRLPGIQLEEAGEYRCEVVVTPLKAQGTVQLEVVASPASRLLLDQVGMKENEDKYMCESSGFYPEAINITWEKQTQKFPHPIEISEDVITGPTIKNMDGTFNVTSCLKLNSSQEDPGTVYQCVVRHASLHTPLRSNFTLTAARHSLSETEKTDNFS
Nature of the assay: BLI; competition/epitope binning: antibodies coupled on activated ARG2G biosensors, first association with NKp30 3 min, second association 3 min with B7-H6 or the other NKp30 binders; both orientations, 25 C. The following applies: both partners purified. (In general: Biolayer interferometry detects binding as a change in optical thickness at a sensor tip.)

B1: Recombinant human His-tagged ECD of NKp30 (receptor, UniProt O14931 19-135, looked up)
chain: LWVSQPPEIRTLEGSSAFLPCSFNASQGRLAIGSVTWFRDEVVPGKEVRNGTPEFRGRLAPLASSRFLHDHQAELHIRDVRGHDASIYVCRVEVLGLGVGTGNGTRLVVEKEHPQLG
notes: NKp30 (natural cytotoxicity triggering receptor 3), human, extracellular domain; supplier named under library sorting; also called rhNKp30; NKp30 His-tagged protein; source: bought: ACROBiosystems
Turning to B1, the binding result is given as “binds”.
